Experimental data taken from patent publication US20250250357A1 (NANJING ZAIMING PHARMACEUTICAL, published 2025).
Where a chain is given by its changes, count along the chain named.

T1: monkey MSLN full-length protein (NCBI: XP_028696439.1) expressed on HEK293T-monkey MSLN cells (monkey)
T1 construct: Whole encoded precursor
T1 chain: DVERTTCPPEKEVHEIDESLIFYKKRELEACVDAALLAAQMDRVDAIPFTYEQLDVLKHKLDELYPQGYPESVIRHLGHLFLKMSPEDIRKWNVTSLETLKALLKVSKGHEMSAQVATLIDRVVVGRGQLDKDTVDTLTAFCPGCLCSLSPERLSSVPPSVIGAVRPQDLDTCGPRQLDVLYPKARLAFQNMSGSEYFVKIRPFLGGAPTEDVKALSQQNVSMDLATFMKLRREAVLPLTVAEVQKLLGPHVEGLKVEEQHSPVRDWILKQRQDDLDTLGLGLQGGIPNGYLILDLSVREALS

B1: S009-F3.38.10 (antibody, human IgG1, kappa, V domains shown)
VH: EVQLQQSGPVLVKPGASVKMSCEASGYIFTDYYMNWVKKSHGKSLEWIGVINPKNGVISHNQKFKGKATLTVDKSSNTAYMELSSLTSEDSAVYYCANYGSRFYAMDYWGQGTSVTVSS
VL: DVVMTQTPLSLPVSLGDQASISCRSSQSLIHSDGNTYLQWYLQKSGQSPKLLIYKVSNRFSGVPDRFSGSGSGTDFTLKISRVETEDLGVYFCSQTTHVPFTFGSGTKLEIKR
notes: human-murine chimeric antibody, human IgG1/kappa constant regions
B2: S009-F3.74.20 (antibody, human IgG1, kappa, V domains shown)
VH: RVQLQQSGAELVRPGASVTLSCKASGYTFTDSEMHWVKQTPVHGLEWIGAIDPEIDGTAYNQNFRDKAILTADKSSSTAYMELRSLTSEDSAVYYCTTYFGSGYGYFDVWGTGTTVTVSS
VL: DVVMTQTPLSLSVSLGDQASISCRSSQSLVYSNGNTYLHWFLQKPGQSPKLLIYKVSNRFSGVPDRFSGSGSGTDFTLKINRVEAEDLGVYFCSQSTHIPFTFGAGTKLELKR
notes: as for B1
B3: S009-F3.45.21 (antibody, human IgG1, kappa, V domains shown)
VH: DVQLQESGPGLVKPSQSLSLTCSVTGDSITSGYYWNWIRQFPGNKLEWMGFIRFDGTNNYNPSLKNRISITRDTSKNQFFLKLNSVTTEDTATYYCAREGSYAPAWFAYWGQGTLVTVSA
VL: QIVLTQSPAIMSASPGEKVTMTCSASSSLSYMYWYQQKPGSSPRLLIYDTSNLASGVPVRFSGSGSGTSYSLTISRMEAEDAATYYCQQWSSYPPTFGGGTKLEIKR
notes: as for B1
B4: S009-F3.23.1 (antibody, human IgG1, kappa, V domains shown)
VH: QVQLQQSGADLVRPGASVTLSCKASGYTFTDYEMHWVKQTPVHGLEWIGAIDPETGDTVYNQNFKGKAILTADKSSSTAYMELRSLTSEDSAVYYCTRYGYDWGWGQGTTLTVSS
VL: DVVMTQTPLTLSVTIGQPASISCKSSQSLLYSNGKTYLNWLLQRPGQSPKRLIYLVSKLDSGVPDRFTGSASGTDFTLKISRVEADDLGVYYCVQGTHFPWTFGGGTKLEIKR
notes: as for B1
B5: S009-F3-63.5 (antibody, human IgG1, kappa, V domains shown)
VH: QVQLQQSGAELVRPGASVTLSCKASGYTFTDYEMHWVKQTPVHGLEWIGGIDPETGDTAYNQQFKGKAILTADRSSSTAYMELRSLTSEDSAVYYCTNYASSREDYWGQGTTLTVSS
VL: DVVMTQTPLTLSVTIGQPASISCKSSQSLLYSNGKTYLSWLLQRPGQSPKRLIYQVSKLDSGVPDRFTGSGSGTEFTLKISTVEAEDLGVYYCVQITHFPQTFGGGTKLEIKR
notes: as for B1
B6: S009-F3.51.8 (antibody, human IgG1, kappa, V domains shown)
VH: QVQLQQSGAELVRPGASVTLSCKASGYTFTDYEMHWVKQTPVHGLEWIGGFDPETGGTAHNQKFKGKAILTADKSSSTAYMELRSLTSEDSAVYYCSNYGSIWGDCWGQGTSVTVSS
VL: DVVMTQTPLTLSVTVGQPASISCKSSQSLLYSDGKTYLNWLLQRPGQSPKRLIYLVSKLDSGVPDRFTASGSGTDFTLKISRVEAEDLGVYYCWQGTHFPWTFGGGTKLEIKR
notes: as for B1
B7: S009-F3.7.3 (antibody, human IgG1, kappa, V domains shown)
VH: EVNFEESGGGLVQPGGSMKLSCVASGFTFSNYWMNWVRQSPEKGLEWVAQIRLKSDNYATHYAESVKGRFTISRDDFKSSVYLQMNNLRAEDTGIYYCTVGTGGYWGQGTTLTVSS
VL: DIVLTQSPASLAMSLGKRATISCRASESVSIVGTNVIHWFQQKPGQPPKLLIYHASNLETGVPARFSGSGSGTDFTLTIDPVEEDDVAIYHCLQSRKIPWTFGGGTKLEIKR
notes: as for B1
B8: S009-F3.16.1 (antibody, human IgG1, kappa, V domains shown)
VH: B7 VH with N3K, T71S, F77S, T99S
VL: B7 VL with M13L, L15P, V32I, N35D, G72R, H91Y
notes: as for B1
B9: F7.33.24-H11 (scFv, not shown: small tags and cut ends)
scFv: EVQLVQSGAEVKKPGASVKVSCKASGYTFTSYWMHWVRQAPGQGLEWMGNVNPSNAGSNYNEKFKNRVTITVDKSASTAYMELSSLRSEDTAVYYCAPHYIGSRPGFAYWGQGTLVTVSSGGGGSGGGGSGGGGSDIVMTQTPLSLSVTPGQPASISCKASQNVGTNIAWYLQKPGQSPQALIYSASYRYSGVPDRFSGSGSGTDFTLKISRVEAEDVGVYYCQQYNSYPLTFGGGTKVEIK
notes: also called S009-F7.33.24 humanized antibody VH2a + VL2
B10: F7.33.24-H12 (scFv, not shown: small tags and cut ends)
scFv: B9 scFv with L172Q
notes: also called S009-F7.33.24 humanized antibody VH2a + VL3
B11: F7.33.24 (scFv, not shown: small tags and cut ends)
scFv: QVQLQQPGTELVKPGASVKLSCKASGYTFTSYWMHWVKQRPGQGLEWIGNVNPSNGGSNYNEKFKNKATLTVDKSSSTADMQLNSLTSEDSAVYYCAPHYIGSRPGFAYWGQGTLVTVSGGGGGSGGGGSGGGGSDIVMTQSQKFMSTSVGDRVSVTCKASQNVGTNIAWYQQKPGQSPKALIYSASYRYSGVPDRFTGSGSGTDFTLTITNVQSEDLAEYFCQQYNSYPLTFGGGTKVEIK
notes: also called S009-F7.33.24 (parental variable regions, in the humanized-antibody ELISA)

target: T2, human MSLN-R3 protein (Met487-Ser606 of NCBI AAH09272.1) expressed on HEK293T-hMSLN-R3 cells (human, UniProt Q13421 487-606); assay: FACS on HEK293T-hMSLN-R3 cells
T2 construct: also called Region3
T2 sequence (Q13421 495-614): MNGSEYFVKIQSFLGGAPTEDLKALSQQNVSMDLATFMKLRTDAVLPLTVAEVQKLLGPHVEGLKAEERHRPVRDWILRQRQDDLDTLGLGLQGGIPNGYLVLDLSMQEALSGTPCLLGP

Compared with B1, B2 is 5.5-fold lower in EC50: 3.41 nM for the first, 0.62 nM for the second. The second is the more potent here.

B4 and B5 are within 1.5-fold of each other in EC50: 0.84 nM for the first, 1.18 nM for the second.

B6 and B7 are within 1.5-fold of each other in EC50: 0.75 nM for the first, 0.72 nM for the second.

B8 gave an EC50 of 0.43 nM.

Compared with B1, B2 is lower in “Maximum mean fluorescence intensity” value: 6770 for the first, 5070 for the second.

Compared with B3, B4 is higher in “Maximum mean fluorescence intensity” value: 81 for the first, 4240 for the second.

Compared with B5, B6 is lower in “Maximum mean fluorescence intensity” value: 8270 for the first, 4470 for the second.

Compared with B7, B8 is higher in “Maximum mean fluorescence intensity” value: 7920 for the first, 8060 for the second.

B3: no binding.

target: T3, human MSLN protein endogenously expressed on OVCAR3 tumor cells (human, UniProt Q13421 296-598); assay: FACS on OVCAR3 cells
T3 construct: whole, on cells; Endogenous target on OVCAR3 cells; kept apart from the recombinant full-length construct; also called mesothelin
T3 sequence (Q13421 other isoform, or with tags, fused parts or gaps): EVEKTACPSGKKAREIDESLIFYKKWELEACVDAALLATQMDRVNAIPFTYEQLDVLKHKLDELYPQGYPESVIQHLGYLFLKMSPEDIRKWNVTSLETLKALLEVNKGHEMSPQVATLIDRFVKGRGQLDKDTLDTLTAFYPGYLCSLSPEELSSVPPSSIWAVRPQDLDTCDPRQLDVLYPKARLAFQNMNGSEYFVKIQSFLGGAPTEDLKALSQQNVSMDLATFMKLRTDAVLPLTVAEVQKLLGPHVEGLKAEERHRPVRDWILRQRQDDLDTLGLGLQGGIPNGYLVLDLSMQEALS

Going from B1 to B2, the “Maximum mean fluorescence intensity” value falls from 2620 to 613.

First: B3
Second: B4
The “Maximum mean fluorescence intensity” value of the first is higher: 9710 for the first, 288 for the second.

First: B5
Second: B6
The “Maximum mean fluorescence intensity” value of the first is lower: 227 for the first, 337 for the second.

Compared with B7, B8 is higher in “Maximum mean fluorescence intensity” value: 3700 for the first, 4190 for the second.

First: B3
Second: B7
The EC50 of the first is 2.9-fold higher: 5.61 nM for the first, 1.94 nM for the second. The second is the more potent here.

For B8, the EC50 was 1.61 nM.

target: T4, human MSLN-R3 protein (human, UniProt Q13421 487-598); assay: ELISA on coated antigen, antibody 0.01 nM
T4 construct: also called hMSLN-R3
T4 sequence (Q13421 495-606, form in doubt): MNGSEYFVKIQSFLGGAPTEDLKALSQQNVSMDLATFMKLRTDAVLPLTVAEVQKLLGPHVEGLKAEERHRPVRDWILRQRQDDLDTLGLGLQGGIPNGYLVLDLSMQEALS

First: B9
Second: B10
The OD450 of the first is higher: 0.05 OD450 for the first, 0.04 OD450 for the second.

B11 showed an OD450 of 0.04 OD450.

target: T4, human MSLN-R3 protein; assay: ELISA on coated antigen, antibody 0.001 nM

B9 and B10 are the same in OD450: 0.04 OD450 for the first, 0.04 OD450 for the second.

B11 gave an OD450 of 0.04 OD450.

target: T4, human MSLN-R3 protein; assay: ELISA on coated antigen, antibody 1 nM

First: B9
Second: B10
The OD450 of the first is higher: 0.68 OD450 for the first, 0.65 OD450 for the second.

In the case of B11, the OD450 is reported as 0.71 OD450.

target: T5, human MSLN-hFc protein (Acro, Cat. No. MSN-H5253) (human, UniProt Q13421 296-580); assay: ELISA on coated antigen, antibody 100 nM
T5 construct: the method names the coated protein as human MSLN-hFc (Acro); also called human MSLN full-length protein
T5 sequence (Q13421 other isoform, or with tags, fused parts or gaps limits assumed): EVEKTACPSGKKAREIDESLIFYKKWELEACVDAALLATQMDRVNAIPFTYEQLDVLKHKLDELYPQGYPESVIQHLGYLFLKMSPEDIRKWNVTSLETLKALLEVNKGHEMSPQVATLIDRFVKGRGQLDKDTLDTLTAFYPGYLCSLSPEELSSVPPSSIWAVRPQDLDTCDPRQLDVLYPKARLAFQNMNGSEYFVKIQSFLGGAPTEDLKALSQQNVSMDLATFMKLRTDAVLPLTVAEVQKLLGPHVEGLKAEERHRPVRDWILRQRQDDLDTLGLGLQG

B9 and B10 are the same in OD450: 2.65 OD450 for the first, 2.65 OD450 for the second.

B11 showed an OD450 of 2.58 OD450.

target: T4, human MSLN-R3 protein; assay: ELISA on coated antigen, antibody 10 nM

First: B9
Second: B10
The OD450 of the first is lower: 1.94 OD450 for the first, 1.95 OD450 for the second.

B11 showed an OD450 of 1.78 OD450.

target: T5, human MSLN-hFc protein (Acro, Cat. No. …); assay: ELISA on coated antigen, antibody 1 nM

First: B9
Second: B10
The OD450 of the first is lower: 0.57 OD450 for the first, 0.58 OD450 for the second.

B11 showed an OD450 of 0.27 OD450.

target: T5, human MSLN-hFc protein (Acro, Cat. No. …); assay: ELISA on coated antigen, antibody 10 nM

Compared with B9, B10 is higher in OD450: 2.18 OD450 for the first, 2.28 OD450 for the second.

B11 gave an OD450 of 1.63 OD450.

target: T4, human MSLN-R3 protein; assay: ELISA on coated antigen, antibody 0.1 nM

B9 and B10 are the same in OD450: 0.09 OD450 for the first, 0.09 OD450 for the second.

B11 was tested, and the OD450 was 0.09 OD450.

target: T4, human MSLN-R3 protein; assay: ELISA on coated antigen, antibody 100 nM

First: B9
Second: B10
The OD450 of the first is higher: 2.1 OD450 for the first, 2.04 OD450 for the second.

B11 was tested, and the OD450 was 1.92 OD450.

target: T5, human MSLN-hFc protein (Acro, Cat. No. …); assay: ELISA on coated antigen, antibody 0.001 nM

B9 and B10 are the same in OD450: 0.04 OD450 for the first, 0.04 OD450 for the second.

Work on B11 yielded an OD450 of 0.26 OD450.

target: T5, human MSLN-hFc protein (Acro, Cat. No. …); assay: ELISA on coated antigen, antibody 0.1 nM

First: B9
Second: B10
The OD450 of the first is lower: 0.09 OD450 for the first, 0.1 OD450 for the second.

With B11 the OD450 was 0.06 OD450.

target: T6, human MSLN full-length protein (NCBI: AAH09272.1) expressed on HEK293T-hMSLN-B8 cells (human, UniProt Q13421 296-598); assay: FACS on HEK293T-hMSLN-B8 cells
T6 construct: Whole encoded precursor
T6 sequence (Q13421 other isoform, or with tags, fused parts or gaps limits assumed): as the sequence (Q13421 other isoform, or with tags, fused parts or gaps) above, with R14P counted along it

B1 and B2 are within 1.5-fold of each other in EC50: 6.84 nM for the first, 8.68 nM for the second.

Going from B3 to B4, the EC50 rises from 1.41 nM to 33.7 nM (24-fold). The first is the more potent here.

First: B6
Second: B7
The EC50 of the first is 9.7-fold higher: 21.8 nM for the first, 2.25 nM for the second.

B8 gave an EC50 of 1.46 nM.

First: B1
Second: B2
The “Maximum mean fluorescence intensity” value of the first is higher: 80600 for the first, 36400 for the second.

Compared with B3, B4 is lower in “Maximum mean fluorescence intensity” value: 97600 for the first, 26400 for the second.

Going from B5 to B6, the “Maximum mean fluorescence intensity” value falls from 35400 to 27900.

Going from B7 to B8, the “Maximum mean fluorescence intensity” value rises from 88800 to 89800.

Target: T1, monkey MSLN full-length protein (NCBI: …)
Assay: FACS on HEK293T-monkey MSLN cells

Going from B1 to B3, the EC50 falls from 4.63 nM to 0.56 nM (8.3-fold).

Binder B8 has an EC50 of 1.4 nM.

First: B1
Second: B2
The “Maximum mean fluorescence intensity” value of the first is higher: 22300 for the first, 188 for the second.

Going from B3 to B4, the “Maximum mean fluorescence intensity” value falls from 41100 to 88.

Compared with B5, B6 is lower in “Maximum mean fluorescence intensity” value: 105 for the first, 88 for the second.

First: B7
Second: B8
The “Maximum mean fluorescence intensity” value of the first is lower: 7100 for the first, 24800 for the second.

B4: no binding.
B5: no binding.
B6: no binding.

target: T5, human MSLN-hFc protein (Acro, Cat. No. …); assay: ELISA on coated antigen, antibody 0.0001 nM

First: B9
Second: B10
The OD450 of the first is lower: 0.04 OD450 for the first, 0.05 OD450 for the second.

With B11 the OD450 was 0.04 OD450.

target: T4, human MSLN-R3 protein; assay: ELISA on coated antigen, antibody 0.0001 nM

Going from B9 to B10, the OD450 falls from 0.05 OD450 to 0.04 OD450.

B11 showed an OD450 of 0.04 OD450.

target: T5, human MSLN-hFc protein (Acro, Cat. No. …); assay: ELISA on coated antigen, antibody 0.01 nM

B9 and B10 are the same in OD450: 0.04 OD450 for the first, 0.04 OD450 for the second.

Work on B11 yielded an OD450 of 0.21 OD450.
